Data from patent publication EP0951295B1 (THE SCRIPPS RESEARCH INSTITUTE, dated 2010).
Each block holds one molecule with its values, some of them ahead of it.

Legend:
[1] = molecular target: integrin αvβ3 (vitronectin receptor), purified and immobilized on microtiter wells (UniProt P06756); test: solid-phase receptor binding assay, 125I-MMP-2 on immobilized αvβ3
[2] = molecular target: integrin αIIbβ3, purified and immobilized on microtiter wells (UniProt P08514); test: solid-phase receptor binding assay, 125I-MMP-2 on immobilized αIIbβ3
[3] = molecular target: integrin αvβ3 (vitronectin receptor), purified and immobilized on microtiter wells (UniProt P06756); test: solid-phase competition: peptide against 1 nM 125I-fibrinogen on immobilized αvβ3; mean of duplicates ± SD
[4] = molecular target: integrin αIIbβ3, purified and immobilized on microtiter wells (UniProt P08514); test: solid-phase competition: peptide against 1 nM 125I-fibrinogen on immobilized αIIbβ3; mean of duplicates ± SD
[5] = molecular target: T1, integrin αvβ3 (vitronectin receptor), purified and immobilized on microtiter wells (UniProt P06756 31-1048; P05106 27-788); test: solid-phase competition: peptide against fibrinogen (FG) on immobilized αvβ3; individual assay
T1 construct: Purified integrin coated at 50 ng per well; also called αvβ3 receptor; vitronectin receptor (αvβ3)

[6] = molecular target: T1, integrin αvβ3 (vitronectin receptor), …; test: solid-phase competition: peptide against vitronectin (VN) on immobilized αvβ3; individual assay
[7] = molecular target: T2, integrin αIIbβ3, purified and immobilized on microtiter wells (UniProt P08514 32-1039; P05106 27-788); test: solid-phase competition: peptide against fibrinogen (FG) on immobilized αIIbβ3; individual assay
T2 construct: Purified integrin coated at 50 ng per well; also called α11bβ3

[8] = molecular target: T2, integrin αIIbβ3, purified and …; test: solid-phase competition: peptide against vitronectin (VN) on immobilized αIIbβ3; individual assay

- bound cpm [1]: 300 cpm
- bound cpm [2]: 10 CPM
Molecule: MMP-2 (matrix metalloproteinase-2) as used in the solid-phase receptor binding assays (enzyme)

- IC50 [3]: 395 nM
- IC50 [4]: 55 nM
Molecule: peptide 62179, cyclo(GRGDfL)

- IC50 [3]: 50 nM
- IC50 [4]: 525 nM
Molecule: peptide 62184, cyclo(RGDfV)

- IC50 [3]: 885 nM
- IC50 [4]: 100000 nM
Molecule: peptide 62185, cyclo(RADfV)

- IC50 [3]: 57400 nM
- IC50 [4]: 100000 nM
Molecule: peptide 62186, cyclo(RaDFV)

- IC50 [5]: > 100000 nM
- IC50 [6]: > 100000 nM
- IC50 [8]: > 100000 nM
B2: peptide 62411, TRQVVCDLGNPM (linear, αv-derived amino acid residues 676-687) (peptide)
peptide: TRQVVCDLGNPM
notes: Linear synthetic peptide

Continued, molecule first:

Molecule: peptide 62175, cyclo(ARGDfL)
- IC50 [3]: 1050 nM
- IC50 [4]: 630 nM

Molecule: peptide 62181, cyclo(GrGDFV)
- IC50 [3]: 1960 nM
- IC50 [4]: 15000 nM

Molecule: peptide 62187, cyclo(RGDFv)
- IC50 [3]: 50 nM
- IC50 [4]: 260 nM

B1: peptide 62880, YTAECKPQVTRGDVF (linear, VN-derived amino acid residues 35-49) (peptide)
peptide: YTAECKPQVTRGDVF
notes: Linear synthetic peptide
- IC50 [5]: < 100 nM
- IC50 [6]: 500 nM
- IC50 [7]: 4200 nM
- IC50 [8]: 980 nM

B3: peptide 62503, GVVRNNEALARLS (linear, αv-derived amino acid residues 655-667) (peptide)
peptide: GVVRNNEALARLS
notes: Linear synthetic peptide
- IC50 [5]: > 100000 nM
- IC50 [6]: > 100000 nM
- IC50 [8]: > 100000 nM

B4: peptide 62502, TDVNGDGRHDL (linear, αIIb-derived amino acid residues 296-306) (peptide)
peptide: TDVNGDGRHDL
notes: Linear synthetic peptide
- IC50 [5]: > 100000 nM
- IC50 [6]: > 100000 nM
- IC50 [7]: 90000 nM
- IC50 [8]: 5000 nM
